The results in this text go back to the supplement of paper PMC7877785.

This data set can be described thus: self-splicing fitness, log relative to wild type (ln ratio); higher = more splicing; Tetrahymena group I intron in knt gene, E. coli kanamycin selection, DiMSum; sequences stand for … in CUCUCU…GGAGGGAAAAGUUAUCAGGCAUGCACCUGGUAGCUAGUCUUUAAACCAAUAGAUUGCAUCGGUUUAAAAGGCAAGACCGUCAAAUUGCGGGAAAGGGGUCAACAGCCGUUCAGUACCAAGUCUCAGGGGAAACUUUGAGAUGGCCUUGCAAAGGGUAUGGUAAUAAGCUGACGGACAUGGUCCUAACCACGCAGCCAAGUCCUAAGUCAACAGAUCUUCUGUUGAUAUGGAUGCAGUUCACAGACUAAAUGUCGGUCGGGGAAGAUGUAUUCUUCUCAUAAGAUAUAGUCGGACCUCUCCUUAAUGGGAGCUAGCGGAUGAAGUGAUGCAACACUGGAGCCGCUGGGAACUAAUUUGUAUGCGAAAGUAUAUUGAUUAGUUUUGGAGUACUCGUGGUCG
A digest of the protocol:
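Library with all eight P1ex-region intron nucleotides randomised, intron inside the knt kanamycin-resistance gene on pET-22b(+), in E. coli BL21(DE3). Cells grew overnight at 37°C or 30°C on LB agar with or without 25 μg/mL kanamycin (plus 100 μg/mL carbenicillin, 50 μM IPTG, 0.2% rhamnose), in six replicate transformations. Pooled colonies were amplicon-sequenced on Illumina HiSeq 2500. DiMSum fitness is the error-weighted combination of wild-type-normalised replicate fold changes, kanamycin versus none.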

± gives the uncertainty stated by the source.

CCUAAGCAAUAUUACGAGUG: the “self-splicing fitness (ln)” value by setting is: (30 °C) -0.812 ± 0.045; (37 °C) -0.282 ± 0.073.

Consider CCUAAGCAAUAUUACGAUAU, for which the “self-splicing fitness (ln)” value reads like this: (30 °C) -3.87 ± 0.32; (37 °C) -2.6 ± 0.21.

In the case of CCUAAGCAAUAUUACGCACC, the “self-splicing fitness (ln)” value is, setting by setting: (30 °C) -3.09 ± 0.27; (37 °C) -3.03 ± 0.28.

CCUAAGCAAUAUUACGCCUG: the “self-splicing fitness (ln)” value by setting is: (30 °C) -3.62 ± 0.3; (37 °C) -2.27 ± 0.3.

CCUAAGCAAUAUUACGCGGC: the “self-splicing fitness (ln)” value was -1.89 ± 0.33 (30 °C) and -2.13 ± 0.42 (37 °C).

For CCUAAGCAAUAUUACGCUGC, the “self-splicing fitness (ln)” value (37 °C) was -3.02 ± 0.34.

For CCUAAGCAAUAUUACGCUUU, the “self-splicing fitness (ln)” value by setting is: (30 °C) -3.09 ± 0.23; (37 °C) -2.17 ± 0.26.

On to CCUAAGCAAUAUUACGGAAA, for which the “self-splicing fitness (ln)” value (37 °C) was -2.27 ± 0.27.

Take CCUAAGCAAUAUUACGGAUU: the “self-splicing fitness (ln)” value reads like this: (30 °C) -4.68 ± 0.28; (37 °C) -2.46 ± 0.23.

For the sequence CCUAAGCAAUAUUACGGCGA, the “self-splicing fitness (ln)” value (30 °C) was -2.84 ± 0.31 and the “self-splicing fitness (ln)” value (37 °C) was -1.95 ± 0.27.

As for CCUAAGCAAUAUUACGUACA, the “self-splicing fitness (ln)” value by setting is: (30 °C) -3.4 ± 0.5; (37 °C) -2.9 ± 0.38.

For CCUAAGCAAUAUUACGUAUC, the “self-splicing fitness (ln)” value was -3.83 ± 0.32 (30 °C) and -2.33 ± 0.26 (37 °C).

As to CCUAAGCAAUAUUACGUCGA, the “self-splicing fitness (ln)” value was -2.67 ± 0.23 (30 °C) and -2.77 ± 0.25 (37 °C).

Take CCUAAGCAAUAUUACGUGCA: the “self-splicing fitness (ln)” value is -3.34 ± 0.18 (30 °C) and -1.91 ± 0.17 (37 °C).

Take CCUAAGCAAUAUUACGUGUG: the “self-splicing fitness (ln)” value is -1.83 ± 0.057 (30 °C) and -1.49 ± 0.075 (37 °C).

Regarding CCUAAGCAAUAUUACGUUAA, the “self-splicing fitness (ln)” value is -3.22 ± 0.4 (30 °C) and -2.49 ± 0.22 (37 °C).

As to CCUAAGCAAUAUUACGUUAC, the “self-splicing fitness (ln)” value (30 °C) was -4.69 ± 0.36 and the “self-splicing fitness (ln)” value (37 °C) is -3.03 ± 0.32.

For the sequence CCUCAGCAAUAUUACGAACG, the “self-splicing fitness (ln)” value is, setting by setting: (30 °C) -0.86 ± 0.062; (37 °C) -0.285 ± 0.096.

For the sequence CCUCAGCAAUAUUACGACGC, the “self-splicing fitness (ln)” value (30 °C) is -3.56 ± 0.4 and the “self-splicing fitness (ln)” value (37 °C) is -2.43 ± 0.45.

Regarding CCUCAGCAAUAUUACGAGUU, the “self-splicing fitness (ln)” value was -2.31 ± 0.1 (30 °C) and -1.11 ± 0.093 (37 °C).

Turning to CCUCAGCAAUAUUACGAUGA, the “self-splicing fitness (ln)” value is, setting by setting: (30 °C) -2.63 ± 0.21; (37 °C) -2.8 ± 0.28.

Turning to CCUCAGCAAUAUUACGAUGU, the “self-splicing fitness (ln)” value by setting is: (30 °C) -3.41 ± 0.15; (37 °C) -1.3 ± 0.12.

On to CCUCAGCAAUAUUACGAUUG, for which the “self-splicing fitness (ln)” value was -1.31 ± 0.068 (30 °C) and -0.558 ± 0.084 (37 °C).

With CCUCAGCAAUAUUACGAUUU, the “self-splicing fitness (ln)” value (30 °C) is -4.46 ± 0.22 and the “self-splicing fitness (ln)” value (37 °C) is -1.39 ± 0.15.

As to CCUCAGCAAUAUUACGCACG, the “self-splicing fitness (ln)” value is, setting by setting: (30 °C) -2.46 ± 0.17; (37 °C) -1.06 ± 0.18.

Consider CCUCAGCAAUAUUACGCCAU, for which the “self-splicing fitness (ln)” value is, setting by setting: (30 °C) -2.88 ± 0.35; (37 °C) -1.8 ± 0.18.

Consider CCUCAGCAAUAUUACGCCCG, for which the “self-splicing fitness (ln)” value by setting is: (30 °C) -0.527 ± 0.15; (37 °C) -0.422 ± 0.18.

For the sequence CCUCAGCAAUAUUACGCCUU, the “self-splicing fitness (ln)” value is, setting by setting: (30 °C) -3.95 ± 0.3; (37 °C) -2.17 ± 0.22.

CCUCAGCAAUAUUACGCUGU: the “self-splicing fitness (ln)” value (30 °C) is -2.84 ± 0.17 and the “self-splicing fitness (ln)” value (37 °C) was -2.05 ± 0.25.

For CCUCAGCAAUAUUACGGAGG, the “self-splicing fitness (ln)” value was -4.45 ± 0.24 (30 °C) and -2.33 ± 0.21 (37 °C).

On to CCUCAGCAAUAUUACGGCCA, for which the “self-splicing fitness (ln)” value is -2.68 ± 0.33 (30 °C) and -2.62 ± 0.33 (37 °C).

On to CCUCAGCAAUAUUACGGCGA, for which the “self-splicing fitness (ln)” value (30 °C) was -3.72 ± 0.31 and the “self-splicing fitness (ln)” value (37 °C) was -2.79 ± 0.22.

Consider CCUCAGCAAUAUUACGGUAU, for which the “self-splicing fitness (ln)” value is -4.53 ± 0.24 (30 °C) and -2.52 ± 0.15 (37 °C).

Turning to CCUCAGCAAUAUUACGUCAG, the “self-splicing fitness (ln)” value (30 °C) is -2.92 ± 0.097 and the “self-splicing fitness (ln)” value (37 °C) is -1.73 ± 0.1.

In the case of CCUCAGCAAUAUUACGUCUG, the “self-splicing fitness (ln)” value (30 °C) was -3.75 ± 0.23 and the “self-splicing fitness (ln)” value (37 °C) is -1.79 ± 0.19.

On to CCUCAGCAAUAUUACGUGAC, for which the “self-splicing fitness (ln)” value is -3.76 ± 0.22 (30 °C) and -2.66 ± 0.24 (37 °C).

On to CCUCAGCAAUAUUACGUGAU, for which the “self-splicing fitness (ln)” value (30 °C) is -2.84 ± 0.2 and the “self-splicing fitness (ln)” value (37 °C) is -2.71 ± 0.43.

As to CCUGAGCAAUAUUACGAAGC, the “self-splicing fitness (ln)” value reads like this: (30 °C) -2.38 ± 0.14; (37 °C) -2.58 ± 0.3.
